Reference: US20250355001A1, “METHOD FOR DETECTING A TAU PROTEIN FRAGMENT IN A SAMPLE” (GTINVENT LIMITED, priority 2022, published 2025)

What was measured:
[1] = system: hT40, dGA, dGAE and truncated tau fragments; assay: Binding ELISA / epitope mapping of anti-tau scAbs with truncated tau proteins and 13mer peptides; design: species or system human; settings: for Tau proteins/fragments with positive scAb reactivity: binding ELISA; for binding region on hT40: amino acid residues of hT40; for Binding region hT40: second Table 26, own antibodies
How it was run: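 Plates coated with 1 μg/ml tau protein, or 5 μg/ml streptavidin then 1 μg/ml biotinylated 13mer peptide; blocked with 2% MPBS. scAbs added at a starting concentration and double-diluted. Bound scAb detected with HRP anti-human C kappa and read as absorbance.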

[2] = target: T1, hT40 (T441, SEQ ID NO: 1) (Homo sapiens, UniProt P10636); assay: Biacore X100 SPR kinetics of scAbs for hT40; format: binding; settings: Table 23; scAb captured, T441 (hT40) analyte; 1:1 model
T1 construct: Full length tau (hT40)
How it was run: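 Captured scAb on anti-HuCk CM5 surface (flow cell 1 as reference) in HBS-EP+, capture set for theoretical RMax 100 RU; hT40 injected multi-cycle (0.15625–100 nM) or single-cycle (6.25–100 nM), 120 s association, 420 s dissociation, glycine pH 2.0 regeneration. Kinetics and affinity from 1:1 binding model fit.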

htau40 = target: T2, htau40 (Homo sapiens, UniProt P10636); assay: Biacore X100 SPR kinetics of anti-tau mAbs on immobilised htau40; format: binding
T2 construct: Full length tau (hT40)
How it was run: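 Htau40 amine-coupled to CM5 chip (~250 RU, pH 4.0 immobilisation), reference flow cell subtracted; mAb injected at 0.78–25 nM in HBS-EP+, 120 s association, 600 s dissociation, glycine pH 1.5 regeneration. Kinetic and affinity constants from 1:1 binding model fit.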

[3] = Table 15, residue numbers of hT40
[4] = Table 26 summary, top scAbs, residues of hT40
[5] = residue numbers of SEQ ID NO: 1 (hT40), CDR Tables 1-11
[6] = Table 27, mAb format, immobilised htau40
[7] = second Table 25, newly converted mAbs, hT40
[8] = Table 16, NS, S and M clones, incl. 13mer peptides

T2 sequence (P10636 1-441 isoform P10636-8): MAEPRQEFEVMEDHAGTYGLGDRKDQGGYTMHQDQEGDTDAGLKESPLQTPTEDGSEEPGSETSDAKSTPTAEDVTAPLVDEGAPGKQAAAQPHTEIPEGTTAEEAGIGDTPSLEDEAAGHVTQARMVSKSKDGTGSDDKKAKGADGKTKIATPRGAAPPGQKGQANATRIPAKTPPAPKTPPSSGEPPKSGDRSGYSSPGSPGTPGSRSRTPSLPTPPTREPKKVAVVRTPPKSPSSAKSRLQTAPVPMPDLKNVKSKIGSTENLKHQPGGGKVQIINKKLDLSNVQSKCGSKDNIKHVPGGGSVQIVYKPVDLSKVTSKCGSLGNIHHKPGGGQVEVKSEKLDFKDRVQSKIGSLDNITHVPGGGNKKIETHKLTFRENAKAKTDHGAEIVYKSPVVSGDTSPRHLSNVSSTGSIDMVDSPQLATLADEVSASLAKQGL
T1 sequence (P10636 1-441 isoform P10636-8): as above

B1: CE2: anti-tau core clone, Table 10; SEQ ID NO: 366 (protein)
scFv: QVQLQESGPSLVKPSQTLSLTCTVSGFSLTNYPVGWVRQAPGKALEWIGNIENDGSANYASALKSRLSITRDTSKNQVSLSLSSATTEDTAVYYCGREFGGSDGYTYFVDIDYWGPGLLVTVSSEGKSSGASGESKVDDQAVLTQPSSVSKSLGQSVSITCSGSSSNVGYGNYVSWFQQVPGSAPKILIYGATSRASGVPDRFSGSRSGNTATLTITSLQAEDEADYYCASYDGSSSGVFGSGTRLTVLG
modifications: CE2/E1B8 amino acid sequence
cross-reactivity using hT40, dGA and dGAE antigens ([1]; ELISA, 'E' group scAbs): cross-reacts with dGA | Tau proteins/fragments with positive scAb reactivity [1, 3]: 297-390 (dGA), 297-391 (dGAE), 313-336 | Shortest region bound on hT40 [1, 3]: 313-336 | Tau proteins/fragments with positive scAb reactivity ([1]; Table 17, 'C' group scAbs): hT40, 266-359 (R1-3) | Shortest region bound on hT40 ([1]; Table 17, 'C' group scAbs, incl. 13mer peptides): 319-331 | Epitope [1, 4]: 319-331 | Epitope ([1]; Table 26 summary, top scAbs, residues of hT40, listed as E1B8): 316-336 | binding region on hT40 ([1]; listed as E1B8 scAb): 313-336 | Epitope [1, 5]: 319-331 | hT40 binding region ([1]; second Table 25, mAb format): 319-331 | ka [2]: 213700 M⁻¹ s⁻¹ | kd [2]: 0.001077 s⁻¹ | ka (htau40; [6]): 457900 M⁻¹ s⁻¹ | kd (htau40; [6]): 0.005218 s⁻¹ | ka (htau40; [7]): 323800 M⁻¹ s⁻¹ | kd (htau40; [7]): 0.001367 s⁻¹

B2: S1D12: sheep-derived anti-tau core clone; scFv SEQ ID NO: 32, VH 443, VL 444 (protein)
scFv: QVQLQESGPSLVKPSQTLSLTCTVSGFSLNNNAVGWVRQAPGKVPESLVGCSSDGTCYYNSALKSRLDITRDTSKNQISLSLSSVTTDDAAVYYCTRGHYSIYGYDYLGTIDYWGPGLLVTVSSEGKSSGASGESKVDDQAVLTQPSSVSGSLGQRVSITCSGSSSNVGGGNSVGWYQHLPGSGLKTIIYDTNSRPSGVPDRFSGSRSGNTATLTINSLQAEDEGDYYCVTGDSTTHDDLVGSGTRLTVLG
modifications: S1D12 amino acid sequence
Tau proteins/fragments with positive scAb reactivity ([1]; Table 16, NS, S and M clones): hT40, 297-390 (dGA), 297-391 (dGAE), 186-350, 266-359, 337-368 | Shortest region bound on hT40 [1, 8]: 337-355 | Epitope [1, 4]: 337-349 | binding region on hT40 [1]: 337-355 | Epitope [1, 5]: 337-355 | Binding region hT40 [1]: (Binding region hT40 337-355) | ka [2]: 1.252e+06 M⁻¹ s⁻¹ | kd [2]: 0.00015 s⁻¹ | ka (htau40; [6]): 405800 M⁻¹ s⁻¹ | kd (htau40; [6]): 4.093e-05 s⁻¹ | Kd (htau40; as quoted in Example 32, read-out: affinity): 0.12 nM

B3: S1G2: sheep-derived anti-tau core clone; scFv SEQ ID NO: 81, VH 455, VL 456 (protein)
scFv: QVQLQESGPSLVKPSQTLSLTCTVSGFSLTSNSVGWVRQAPGKAPEWVAGIDTDGEEGYNPALNSRLSITRDTSKSQVSLSLSSVTSEDTAVYYCGRSYRADGLAYGYVQAIDYWGPGLLVTVSSEGKSSGASGESKVDDQAVVTQPSSVSGSLGQRVSITCSGSFIGISSVGWFQQLPGSGLRTIIVASDGRPSGVPDRFSMSKSGNTATLTISSLQAEDEADYFCGSSDRTPYTGVFGSGTRLTVLG
modifications: S1G2 amino acid sequence
Tau proteins/fragments with positive scAb reactivity ([1]; Table 16, NS, S and M clones): hT40, 297-390 (dGA), 297-391 (dGAE), 369-390, 369-391 | Shortest region bound on hT40 [1, 8]: 367-379 | Epitope [1, 4]: 367-379 | Detection scAb (Epitope) ([1]; Table 28 (LoD table), residues of hT40): S1G2 (367-379) | binding region on hT40 [1]: 367-379 | Binding region hT40 [1]: (Binding region hT40 367-379) | ka [2]: 1.057e+06 M⁻¹ s⁻¹ | kd [2]: 0.00018 s⁻¹ | ka (htau40; [6]): 339800 M⁻¹ s⁻¹ | kd (htau40; [6]): 4.748e-05 s⁻¹
